Binding result and Kd data for two molecules are collected here from paper PMC2196205.

Data set [1] concerns the target T1, Zif268 (mouse, UniProt P08046 333-421). Description: SPR. (In general: In SPR one partner is held on a chip, and binding of the other changes the refractive index at the surface.)
Data set [2] addresses T1, Zif268. As to the kind of experiment: SPR. This is another data set of the same source.
The target in data set [3] is T1, Zif268. Description: ELISA. Background: An ELISA detects its analyte on a solid surface through an enzyme-linked reagent.

As usually defined, the Kd is the constant that tells how readily two partners part at equilibrium.

B1: Htelo (structured_DNA)
DNA: GGTTAGGGTTAGGGTTAGGGTTAGGGTTAG
B1: the binding result in the data set with Zif268 [1] was “no binding”.

B2: ZifDNA (dsDNA)
DNA 1: GGCATAGTGCGTGGGCGTTAGC
DNA 2: GCTAACGCCCACGCACTATGCC
Turning to B2, the figures for the Kd in the data set with Zif268 [2] and in the data set with Zif268 [3] were 5.3 ± 1.5 nM and 12 ± 5 nM, respectively.
